In US11584938B2, “Plant EPSPS mutant containing L195P and S247G mutations and encoding gene and use thereof” (GEVOTO LLC, priority 2017, dated 2023):
Changes are numbered by the printed parent chain.

B1: R0: wild-type rice EPSPS, amino acid sequence SEQ ID NO: 28; control (protein, listed as Oryza sativa)
chain: MASNAAAAAAKAEEIVLQPIREISGAVQLPGSKSLSNRILLLSALSEGTTVVDNLLNSEDVHYMLEALKALGLSVEADKVAKRAVVVGCGGKFPVEKDAKEEVQLFLGNAGTAMRPLTAAVTAAGGNATYVLDGVPRMRERPIGDLVVGLKQLGADVDCFLGTECPPVRVKGIGGLPGGKVKLSGSISSQYLSALLMAAPLALGDVEIEIIDKLISIPYVEMTLRLMERFGVKAEHSDSWDRFYIKGGQKYKSPGNAYVEGDASSASYFLAGAAITGGTVTVQGCGTTSLQGDVKFAEVLEMMGAKVTWTDTSVTVTGPPREPYGKKHLKAVDVNMNKMPDVAMTLAVVALFADGPTAIRDVASWRVKETERMVAIRTELTKLGASVEEGPDYCIITPPEKLNITAIDTYDDHRMAMAFSLAACADVPVTIRDPGCTRKTFPNYFDVLSTFVRN
B2: R1: rice EPSPS mutant, SEQ ID NO: 30, mutation L214(195)P (protein)
chain: B1 chain with L214P

Tested on: transgenic rice plants
Assay: glyphosate resistance of the EPSPS mutant in transgenic rice plants sprayed with Roundup 41% ammonium glyphosate
Type: in vivo, rice (Nipponbare)
Procedure, shortened: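 EPSPS mutant genes were cloned into pGVP1 and introduced into Nipponbare rice embryo-derived calluses via Agrobacterium EHA105 (OD 0.2, 10 min infection, 2–3 days co-culture at 25 °C in the dark). Calluses went through recovery, two 14-day screening rounds at 30 °C, two differentiation rounds and rooting to regenerate transgenic plants.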

[1] = 1× dosage 1060 g/hectare glyphosate sprayed, recorded on 10th day
[2] = 2× dosage 2120 g/hectare sprayed to plants surviving 1×, recorded 10 days later
[3] = 5× dosage 5300 g/hectare sprayed to plants surviving 2×, recorded 10 days later
[4] = 20× dosage 21200 g/hectare sprayed to plants surviving 5×, recorded 10 days later

Row | Molecule | %++&+++ (percentage of plant having medium and high glyphosate resistance to the total number of plants observed) [1] | number of plants denoted by + (low glyphosate resistance) [1] | number of plants denoted by ++ (medium glyphosate resistance) [1] | number of plants denoted by +++ (high glyphosate resistance) [1] | number of plants denoted by − (no glyphosate resistance) [1] | glyphosate resistance / survival of the rice transformed by the EPSPS, in words (1× glyphosate dosage) | %++&+++ (percentage of plant having medium and high glyphosate resistance to the total number of plants observed) [2] | number of plants denoted by + (low glyphosate resistance) [2] | number of plants denoted by ++ (medium glyphosate resistance) [2] | number of plants denoted by +++ (high glyphosate resistance) [2] | number of plants denoted by − (no glyphosate resistance) [2] | &++&+++ (percentage of plant having medium and high glyphosate resistance to the total number of plants observed) [3] | number of plants denoted by + (low glyphosate resistance) [3] | number of plants denoted by ++ (medium glyphosate resistance) [3] | number of plants denoted by +++ (high glyphosate resistance) [3] | number of plants denoted by − (no glyphosate resistance) [3] | &++&+++ (percentage of plant having medium and high glyphosate resistance to the total number of plants observed) [4] | number of plants denoted by + (low glyphosate resistance) [4] | number of plants denoted by ++ (medium glyphosate resistance) [4] | number of plants denoted by +++ (high glyphosate resistance) [4] | other results
1 | B1 | 0.0% | 1 | 0 | 0 | 30 | had no resistance, one was seriously damaged, and all the others died | 45.8% | 0 | 0 | 0 | 31 | 0.0% | 0 | 0 | 0 | 31 | 0.0% | 0 | 0 | 0 | number of plants denoted by − (no glyphosate resistance) [4]: 31
2 | B2 | 63.2% | 1 | 1 | 11 | 6 | obviously superior to that of the rice seedlings transformed by R0 | 55.2% | 3 | 10 | 1 | 10 | 4.2% | 9 | 1 | 0 | 14 | 0.0% | 4 | 0 | 0 | glyphosate resistance / survival of the rice transformed by the EPSPS, in words (2× glyphosate dosage): some of the transgenic rice seedlings transformed by R1 and R4 still survived; glyphosate resistance / survival of the rice transformed by the EPSPS, in words (5× glyphosate dosage): some of the transgenic rice seedlings transformed by R1 and R4 still survived; number of plants denoted by − (no glyphosate resistance) [4]: 20; glyphosate resistance / survival of the rice transformed by the EPSPS, in words (20× glyphosate dosage): some of the transgenic rice seedlings transformed by R1 and R4 still survived
